These results are taken from article PMC7459404, “Structural insights into the enhanced carbapenemase efficiency of OXA‐655 compared to OXA‐10” (FEBS Open Bio, 2020).

The data set concerns the molecule itself. As to the kind of experiment: crystal structure; OXA-10 crystals (hanging drop, 4 °C, 20–23% PEG 3350, 0.2 M magnesium formate) soaked about 2 min with IPM; 1.89 Å, P212121, two chains in the asymmetric unit; dimer interface analysed with PISA.

B1: OXA-10 class D β-lactamase (enzyme)
chain: GSITENTSWNKEFSAEAVNGVFVLCKSSSKSCATNDLARASKEYLPASTFKIPNAIIGLETGVIKNEHQVFKWDGKPRAMKQWERDLTLRGAIQVSAVPVFQQIAREVGEVRMQKYLKKFSYGNQNISGGIDKFWLEGQLRISAVNQVEFLESLYLNKLSASKENQLIVKEALVTEAAPEYLVHSKTGFSGVGTESNPGVAWWVGWVEKETEVYFFAFNMDIDNESKLPLRKSIPTKIMESEGIIGG
modifications: carboxylated lysine 70 (KCX70); S67 OG covalently bound to the ring-opened carbapenem (IPM or ETP, acyl-enzyme)
notes: Crystals were soaked with imipenem (6SKP) or ertapenem (6SKR); two chains (A, B) in the asymmetric unit; also called OXA-10_IPM; OXA-10_ETP
As to B1, the binding result is listed as “binds”.
